According to paper doi:10.1101/2025.06.13.659133:

Molecular target: dual specificity anti-activin A/B antibody (human IgG1 format) (human)
Experiment: BLI

Kd: 0.13 nM
B1: mature human activin A (ligand)
chain: GLECDGKVNICCKKQFFVSFKDIGWNDWIIAPSGYHANYCEGECPSHIAGTSGSSLSFHSTVINHYRMRGHSPFANLKSCCVPTKLRPMSMLYYDDGQNIIKKDIQNMIVEECGCS
